Measured values reported in patent US20240425609A1.

Experiments:
human CD22 (human) = human CD22 (human) (UniProt P20273); assay: cell-based or functional assay
human CD3 (human) = assay: cell-based or functional assay
mouse PD1 (mouse) = mouse PD1 (mouse) (UniProt Q02242); assay: cell-based or functional assay
mouse CD20 (mouse) = mouse CD20 (mouse) (UniProt P19437); assay: flow cytometry on MC38/mCD20 cells
Sequence of mouse CD20 (mouse) (P19437 whole entry): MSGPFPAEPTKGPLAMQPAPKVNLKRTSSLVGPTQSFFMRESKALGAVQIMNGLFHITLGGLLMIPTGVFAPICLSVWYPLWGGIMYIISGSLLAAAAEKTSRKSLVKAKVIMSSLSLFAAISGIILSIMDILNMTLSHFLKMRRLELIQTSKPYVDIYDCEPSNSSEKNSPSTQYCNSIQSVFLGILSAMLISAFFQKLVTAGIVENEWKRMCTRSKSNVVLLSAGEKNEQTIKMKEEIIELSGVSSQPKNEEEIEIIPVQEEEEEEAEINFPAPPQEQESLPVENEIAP

Sequence of human CD22 (human) (P20273 20-847): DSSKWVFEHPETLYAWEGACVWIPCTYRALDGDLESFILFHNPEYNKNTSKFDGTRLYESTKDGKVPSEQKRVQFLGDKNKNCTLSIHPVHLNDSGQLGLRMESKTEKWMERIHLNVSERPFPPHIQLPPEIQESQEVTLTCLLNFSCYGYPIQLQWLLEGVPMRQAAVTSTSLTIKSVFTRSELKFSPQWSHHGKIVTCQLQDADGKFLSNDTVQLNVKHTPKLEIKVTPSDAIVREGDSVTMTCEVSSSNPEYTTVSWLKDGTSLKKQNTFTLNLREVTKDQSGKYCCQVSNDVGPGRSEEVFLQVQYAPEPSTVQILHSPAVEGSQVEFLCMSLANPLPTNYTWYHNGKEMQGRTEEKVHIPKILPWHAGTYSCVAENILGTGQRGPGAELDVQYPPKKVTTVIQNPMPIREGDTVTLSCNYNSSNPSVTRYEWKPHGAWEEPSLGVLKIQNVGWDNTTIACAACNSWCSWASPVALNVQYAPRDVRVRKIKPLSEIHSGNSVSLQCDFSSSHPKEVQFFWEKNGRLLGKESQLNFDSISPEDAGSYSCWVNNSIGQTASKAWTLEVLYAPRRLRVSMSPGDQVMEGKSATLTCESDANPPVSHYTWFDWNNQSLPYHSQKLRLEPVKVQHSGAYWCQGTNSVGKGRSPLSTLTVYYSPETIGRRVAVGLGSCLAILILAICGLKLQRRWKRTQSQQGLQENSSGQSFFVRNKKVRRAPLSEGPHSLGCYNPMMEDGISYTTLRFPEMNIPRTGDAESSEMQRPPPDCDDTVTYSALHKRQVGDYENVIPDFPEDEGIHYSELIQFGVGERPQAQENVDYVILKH
Sequence of mouse PD1 (mouse) (Q02242 25-288): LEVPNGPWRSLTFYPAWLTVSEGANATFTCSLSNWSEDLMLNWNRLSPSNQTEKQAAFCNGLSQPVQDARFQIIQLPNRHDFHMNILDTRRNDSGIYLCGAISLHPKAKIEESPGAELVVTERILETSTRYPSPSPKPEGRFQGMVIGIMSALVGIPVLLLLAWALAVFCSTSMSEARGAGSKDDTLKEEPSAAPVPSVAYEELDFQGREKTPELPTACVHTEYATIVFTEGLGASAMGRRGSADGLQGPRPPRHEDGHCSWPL

“CD3 bsAb (REGN10551) (bispecific antibody)” showed an EC50, activation of T cell signaling (AP1-luciferase), run with 1 nM CD3 bsAb (human CD22 (human)) of 1.15 nM, an EC50, activation of T cell signaling (AP1-luciferase), run with 2.5 nM CD3 bsAb (human CD22 (human)) of 0.627 nM and an EC50, activation of T cell signaling (AP1-luciferase), run with 1 nM CD3 bsAb (human CD3 (human)) of 1.15 nM. The EC50, activation of T cell signaling (AP1-luciferase), run with 2.5 nM CD3 bsAb (human CD3 (human)) was 0.627 nM.

For REGN1932 (hIgG1 control) (antibody), the Max % inhibition, AP1-luciferase bioassay, 2.5 nM CD3 bsAb (mouse PD1 (mouse)) was 3%.

In the case of Single arm mPDL1 WT-Fc (Fc fusion), the Max MFI (mouse CD20 (mouse)) is reported as 94.9 MFI.
